Results taken from publication PMC10172135.

Columns and labels:
[1] = target: FRP-like protein (FRPL) from Pseudomonas borbori (Pseudomonas borbori); experiment: native MS; 4 µM (monomer) in 200 mM ammonium acetate pH 6.8, Q Exactive, positive ion mode
[2] = target: orange carotenoid protein OCP1 from Synechocystis sp. PCC 6803 (Synechocystis sp. PCC 6803)

Substance: FRP-like protein (FRPL) from Pseudomonas borbori (natural protein)
- stoichiometry N [1]: 2

Substance: FRPL from a delta-proteobacterium of the Desulfobacteraceae family (natural protein)
- acceleration of OCP1’s recovery from photoconversion (20 °C, equimolar ratio of OCP1 to FRPL), compared to OCP1 alone [2]: 93%
